Measured values from patent publication US20250340902A1, “GENE THERAPY FOR BVES-RELATED DISORDERS” (OHIO STATE INNOVATION FOUNDATION, priority 2022, published 2025).

Experiments:
[1] = biological target: Patatin-like phospholipase domain-containing protein 7 (Mus musculus) (UniProt A2AJ88); experiment: anti-HA co-IP from muscle, MS; CTRL 0
[2] = biological target: Sulfide:quinone oxidoreductase, mitochondrial (Mus musculus) (UniProt Q9R112); experiment: anti-HA co-IP from muscle, MS; CTRL 0
[3] = biological target: Spectrin alpha chain, erythrocytic 1 (Mus musculus) (UniProt P08032); experiment: anti-HA co-IP from muscle, MS; CTRL 0
[4] = biological target: Glutamate dehydrogenase 1, mitochondrial (Mus musculus) (UniProt P26443); experiment: anti-HA co-IP from muscle, MS; CTRL 0
[5] = biological target: Gamma-sarcoglycan (Mus musculus) (UniProt P82348); experiment: anti-HA co-IP from muscle, MS; CTRL 0
[6] = biological target: DNA replication licensing factor MCM2 (Mus musculus) (UniProt P97310); experiment: anti-HA co-IP from muscle, MS; CTRL 0
[7] = biological target: Triggering receptor expressed on myeloid cells 2 (Mus musculus) (UniProt Q99NH8); experiment: anti-HA co-IP from muscle, MS; CTRL 0
[8] = biological target: Transmembrane protein 201 (Mus musculus) (UniProt A2A8U2); experiment: anti-HA co-IP from muscle, MS; CTRL 0
[9] = biological target: Glutamine amidotransferase-like class 1 domain-containing protein 3A, mitochondrial (Mus musculus) (UniProt Q9D172); experiment: anti-HA co-IP from muscle, MS; CTRL 0
[10] = biological target: Monocarboxylate transporter 4 (Mus musculus) (UniProt P57787); experiment: anti-HA co-IP from muscle, MS; CTRL 0
[11] = biological target: Trifunctional enzyme subunit beta, mitochondrial (Mus musculus) (UniProt Q99JY0); experiment: anti-HA co-IP from muscle, MS; CTRL 4
[12] = biological target: Phosphorylase b kinase regulatory subunit beta (Mus musculus) (UniProt Q7TSH2); experiment: anti-HA co-IP from muscle, MS; CTRL 4
[13] = biological target: MICOS complex subunit Mic60 (Mus musculus) (UniProt Q8CAQ8); experiment: anti-HA co-IP from muscle, MS; CTRL 4
[14] = biological target: Carnitine O-palmitoyltransferase 1, muscle isoform (Mus musculus) (UniProt Q924X2); experiment: anti-HA co-IP from muscle, MS; CTRL 4
[15] = biological target: Cullin-associated NEDD8-dissociated protein 2 (Mus musculus) (UniProt Q6ZQ73); experiment: anti-HA co-IP from muscle, MS; CTRL 1
[16] = biological target: Alpha-sarcoglycan (Mus musculus) (UniProt P82350); experiment: anti-HA co-IP from muscle, MS; CTRL 1
[17] = biological target: Unconventional myosin-Ic (Mus musculus) (UniProt Q9WTI7); experiment: anti-HA co-IP from muscle, MS; CTRL 1
[18] = biological target: Caveolae-associated protein 2 (Mus musculus) (UniProt Q63918); experiment: anti-HA co-IP from muscle, MS; CTRL 1
[19] = biological target: Caveolin-1 (Mus musculus) (UniProt P49817); experiment: anti-HA co-IP from muscle, MS; CTRL 1
[20] = biological target: Ribosomal protein S6 kinase alpha-3 (Mus musculus) (UniProt P18654); experiment: anti-HA co-IP from muscle, MS; CTRL 1
[21] = biological target: Protein-cysteine N-palmitoyltransferase HHAT-like protein (Mus musculus) (UniProt Q9D1G3); experiment: anti-HA co-IP from muscle, MS; CTRL 1
[22] = biological target: Collagen alpha-2(IV) chain (Mus musculus) (UniProt P08122); experiment: anti-HA co-IP from muscle, MS; CTRL 1
[23] = biological target: Alpha-1-syntrophin (Mus musculus) (UniProt Q61234); experiment: anti-HA co-IP from muscle, MS; CTRL 1
[24] = biological target: Glypican-1 (Mus musculus) (UniProt Q9QZF2); experiment: anti-HA co-IP from muscle, MS; CTRL 1
Vinculin (Mus musculus) = Vinculin (Mus musculus) (UniProt Q64727); experiment: anti-HA co-IP from muscle, MS; CTRL 1
[25] = biological target: Caveolae-associated protein 3 (Mus musculus) (UniProt Q91VJ2); experiment: anti-HA co-IP from muscle, MS; CTRL 1

Chain of Alpha-1-syntrophin (Mus musculus) (Q61234 whole entry): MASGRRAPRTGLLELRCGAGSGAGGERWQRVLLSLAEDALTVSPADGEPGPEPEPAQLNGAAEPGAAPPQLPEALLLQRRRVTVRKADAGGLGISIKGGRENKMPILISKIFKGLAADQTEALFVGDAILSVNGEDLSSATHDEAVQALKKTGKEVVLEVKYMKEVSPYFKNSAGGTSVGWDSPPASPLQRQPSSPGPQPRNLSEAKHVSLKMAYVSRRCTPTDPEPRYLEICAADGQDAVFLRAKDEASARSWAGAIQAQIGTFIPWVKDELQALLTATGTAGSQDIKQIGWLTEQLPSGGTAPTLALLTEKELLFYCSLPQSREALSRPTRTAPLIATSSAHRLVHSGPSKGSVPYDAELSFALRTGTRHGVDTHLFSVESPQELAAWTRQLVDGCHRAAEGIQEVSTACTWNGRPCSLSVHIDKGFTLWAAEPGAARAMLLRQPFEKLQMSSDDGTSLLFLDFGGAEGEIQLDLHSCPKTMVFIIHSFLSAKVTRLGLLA
Chain of Glutamate dehydrogenase 1, mitochondrial (Mus musculus) (P26443 54-558 limits assumed): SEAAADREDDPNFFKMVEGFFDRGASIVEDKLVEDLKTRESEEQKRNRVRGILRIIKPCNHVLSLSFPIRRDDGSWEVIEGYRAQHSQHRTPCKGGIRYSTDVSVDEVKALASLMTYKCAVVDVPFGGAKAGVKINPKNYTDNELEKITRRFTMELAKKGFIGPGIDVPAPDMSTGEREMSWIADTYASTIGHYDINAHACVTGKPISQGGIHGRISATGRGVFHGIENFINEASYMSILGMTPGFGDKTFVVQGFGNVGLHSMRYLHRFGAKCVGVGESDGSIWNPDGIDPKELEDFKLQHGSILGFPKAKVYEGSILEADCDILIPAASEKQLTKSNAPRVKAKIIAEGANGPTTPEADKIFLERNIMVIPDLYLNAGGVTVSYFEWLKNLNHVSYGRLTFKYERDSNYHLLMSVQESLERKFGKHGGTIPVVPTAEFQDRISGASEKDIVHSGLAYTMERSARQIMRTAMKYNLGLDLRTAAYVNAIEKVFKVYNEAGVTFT
Chain of Cullin-associated NEDD8-dissociated protein 2 (Mus musculus) (Q6ZQ73 2-1235 limits assumed): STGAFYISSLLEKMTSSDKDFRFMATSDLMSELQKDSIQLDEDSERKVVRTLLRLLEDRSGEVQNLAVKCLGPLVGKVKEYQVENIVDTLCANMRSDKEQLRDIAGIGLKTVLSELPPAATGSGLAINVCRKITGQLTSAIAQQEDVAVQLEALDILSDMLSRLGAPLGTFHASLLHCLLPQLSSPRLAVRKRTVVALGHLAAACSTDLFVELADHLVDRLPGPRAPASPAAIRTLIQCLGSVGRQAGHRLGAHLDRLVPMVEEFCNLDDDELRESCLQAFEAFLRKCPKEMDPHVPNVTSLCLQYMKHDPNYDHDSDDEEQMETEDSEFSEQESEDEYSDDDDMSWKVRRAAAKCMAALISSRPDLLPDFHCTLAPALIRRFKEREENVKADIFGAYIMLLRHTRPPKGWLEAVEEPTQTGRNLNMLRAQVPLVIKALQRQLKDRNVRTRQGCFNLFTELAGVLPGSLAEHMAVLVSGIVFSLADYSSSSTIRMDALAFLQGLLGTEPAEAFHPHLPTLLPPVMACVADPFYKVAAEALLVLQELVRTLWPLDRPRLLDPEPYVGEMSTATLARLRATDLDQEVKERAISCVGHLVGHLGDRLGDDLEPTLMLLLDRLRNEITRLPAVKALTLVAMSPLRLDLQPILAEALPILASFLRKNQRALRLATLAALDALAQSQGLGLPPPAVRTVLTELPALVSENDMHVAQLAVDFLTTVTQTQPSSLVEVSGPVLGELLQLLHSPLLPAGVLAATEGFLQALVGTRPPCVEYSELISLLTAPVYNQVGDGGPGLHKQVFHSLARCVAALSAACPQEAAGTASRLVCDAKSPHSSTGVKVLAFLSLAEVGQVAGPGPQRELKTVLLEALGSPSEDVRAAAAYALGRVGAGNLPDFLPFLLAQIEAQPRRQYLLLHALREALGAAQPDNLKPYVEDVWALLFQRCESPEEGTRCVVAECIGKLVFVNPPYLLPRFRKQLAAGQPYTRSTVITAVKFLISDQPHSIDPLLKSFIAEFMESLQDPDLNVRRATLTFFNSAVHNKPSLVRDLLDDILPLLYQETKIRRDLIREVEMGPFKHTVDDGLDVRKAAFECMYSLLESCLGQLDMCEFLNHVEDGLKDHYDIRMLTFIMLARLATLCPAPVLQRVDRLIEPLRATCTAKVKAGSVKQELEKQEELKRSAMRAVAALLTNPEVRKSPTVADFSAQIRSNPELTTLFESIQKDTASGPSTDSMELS
Chain of Spectrin alpha chain, erythrocytic 1 (Mus musculus) (P08032 whole entry): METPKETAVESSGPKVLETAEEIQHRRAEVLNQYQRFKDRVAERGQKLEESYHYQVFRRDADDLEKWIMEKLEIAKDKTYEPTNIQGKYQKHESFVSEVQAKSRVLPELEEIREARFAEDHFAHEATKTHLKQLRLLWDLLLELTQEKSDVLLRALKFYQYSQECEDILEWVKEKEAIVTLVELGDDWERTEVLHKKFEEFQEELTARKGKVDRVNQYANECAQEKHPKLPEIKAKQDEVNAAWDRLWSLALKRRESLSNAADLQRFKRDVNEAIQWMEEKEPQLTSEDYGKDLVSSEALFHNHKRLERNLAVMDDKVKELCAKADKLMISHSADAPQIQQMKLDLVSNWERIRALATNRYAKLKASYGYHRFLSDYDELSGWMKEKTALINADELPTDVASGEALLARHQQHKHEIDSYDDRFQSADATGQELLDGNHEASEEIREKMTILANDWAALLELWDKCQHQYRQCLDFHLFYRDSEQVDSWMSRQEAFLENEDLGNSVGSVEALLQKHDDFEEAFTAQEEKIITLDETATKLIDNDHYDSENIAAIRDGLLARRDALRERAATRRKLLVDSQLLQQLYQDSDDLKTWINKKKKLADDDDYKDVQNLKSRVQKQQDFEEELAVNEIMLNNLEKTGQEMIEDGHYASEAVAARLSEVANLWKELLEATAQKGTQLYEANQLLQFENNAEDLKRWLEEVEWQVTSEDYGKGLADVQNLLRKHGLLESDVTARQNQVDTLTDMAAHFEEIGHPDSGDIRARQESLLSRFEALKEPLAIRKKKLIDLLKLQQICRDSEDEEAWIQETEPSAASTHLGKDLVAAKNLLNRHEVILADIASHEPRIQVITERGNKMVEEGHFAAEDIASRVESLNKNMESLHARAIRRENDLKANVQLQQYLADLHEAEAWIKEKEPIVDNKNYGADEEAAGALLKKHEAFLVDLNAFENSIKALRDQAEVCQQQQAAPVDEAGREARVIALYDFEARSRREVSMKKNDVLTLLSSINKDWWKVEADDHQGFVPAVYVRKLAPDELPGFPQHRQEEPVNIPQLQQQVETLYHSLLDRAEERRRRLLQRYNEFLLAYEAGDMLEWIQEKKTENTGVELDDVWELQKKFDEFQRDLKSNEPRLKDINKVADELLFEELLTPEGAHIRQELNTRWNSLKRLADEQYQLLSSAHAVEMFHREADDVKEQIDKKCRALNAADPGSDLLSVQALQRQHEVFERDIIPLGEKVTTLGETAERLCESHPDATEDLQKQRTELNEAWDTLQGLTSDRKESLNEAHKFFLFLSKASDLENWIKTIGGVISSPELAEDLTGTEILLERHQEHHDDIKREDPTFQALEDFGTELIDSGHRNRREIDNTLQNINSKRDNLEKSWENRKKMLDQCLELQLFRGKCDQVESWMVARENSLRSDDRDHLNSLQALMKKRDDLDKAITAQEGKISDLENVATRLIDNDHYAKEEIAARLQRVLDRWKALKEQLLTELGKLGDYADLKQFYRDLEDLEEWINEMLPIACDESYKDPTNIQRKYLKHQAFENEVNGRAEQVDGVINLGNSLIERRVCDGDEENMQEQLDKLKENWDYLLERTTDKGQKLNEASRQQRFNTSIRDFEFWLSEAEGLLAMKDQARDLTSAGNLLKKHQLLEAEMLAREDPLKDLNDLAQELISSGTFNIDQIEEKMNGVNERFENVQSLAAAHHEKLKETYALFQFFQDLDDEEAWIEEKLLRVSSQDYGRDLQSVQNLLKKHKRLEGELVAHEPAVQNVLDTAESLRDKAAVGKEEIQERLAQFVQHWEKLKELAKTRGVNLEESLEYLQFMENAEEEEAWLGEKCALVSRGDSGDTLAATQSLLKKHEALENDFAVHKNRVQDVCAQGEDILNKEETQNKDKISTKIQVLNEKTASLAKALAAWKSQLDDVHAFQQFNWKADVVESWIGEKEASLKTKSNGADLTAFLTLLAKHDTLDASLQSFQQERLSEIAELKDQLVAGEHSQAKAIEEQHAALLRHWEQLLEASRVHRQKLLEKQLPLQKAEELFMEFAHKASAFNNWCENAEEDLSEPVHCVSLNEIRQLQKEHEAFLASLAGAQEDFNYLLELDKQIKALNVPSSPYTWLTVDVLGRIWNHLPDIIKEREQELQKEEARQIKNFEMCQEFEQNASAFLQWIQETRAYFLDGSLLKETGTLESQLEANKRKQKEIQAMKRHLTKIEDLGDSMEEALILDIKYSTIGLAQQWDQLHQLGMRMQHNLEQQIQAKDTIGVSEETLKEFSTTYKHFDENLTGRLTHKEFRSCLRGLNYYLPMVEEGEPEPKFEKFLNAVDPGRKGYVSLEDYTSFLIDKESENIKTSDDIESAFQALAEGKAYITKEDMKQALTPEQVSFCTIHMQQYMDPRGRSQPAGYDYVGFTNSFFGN
Chain of Caveolin-1 (Mus musculus) (P49817 2-178 limits assumed): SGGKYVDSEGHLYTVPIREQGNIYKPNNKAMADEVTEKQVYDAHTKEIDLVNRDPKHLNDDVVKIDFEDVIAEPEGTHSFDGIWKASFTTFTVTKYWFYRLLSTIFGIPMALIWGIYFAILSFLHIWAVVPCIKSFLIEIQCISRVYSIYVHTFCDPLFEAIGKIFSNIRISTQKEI
Chain of Triggering receptor expressed on myeloid cells 2 (Mus musculus) (Q99NH8 19-227 limits assumed): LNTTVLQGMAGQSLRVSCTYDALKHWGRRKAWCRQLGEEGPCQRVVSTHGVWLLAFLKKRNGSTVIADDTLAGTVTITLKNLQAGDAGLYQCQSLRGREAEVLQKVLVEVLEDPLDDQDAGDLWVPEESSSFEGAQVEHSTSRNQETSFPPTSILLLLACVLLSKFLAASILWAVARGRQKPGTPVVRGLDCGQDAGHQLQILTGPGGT

## human BVES fused with 3xHA tag (from UniProt Q8NE79 1-360)
[1]
  AAV9-BVES-HA (IP-MS count): 2
[2]
  AAV9-BVES-HA (IP-MS count): 3
[3]
  AAV9-BVES-HA (IP-MS count): 27
[4]
  AAV9-BVES-HA (IP-MS count): 6
[5]
  AAV9-BVES-HA (IP-MS count): 5
[6]
  AAV9-BVES-HA (IP-MS count): 4
[7]
  AAV9-BVES-HA (IP-MS count): 2
[8]
  AAV9-BVES-HA (IP-MS count): 2
[9]
  AAV9-BVES-HA (IP-MS count): 4
[10]
  AAV9-BVES-HA (IP-MS count): 12
[11]
  AAV9-BVES-HA (IP-MS count): 13
[12]
  AAV9-BVES-HA (IP-MS count): 18
[13]
  AAV9-BVES-HA (IP-MS count): 15
[14]
  AAV9-BVES-HA (IP-MS count): 24
[15]
  AAV9-BVES-HA (IP-MS count): 16
[16]
  AAV9-BVES-HA (IP-MS count): 5
[17]
  AAV9-BVES-HA (IP-MS count): 7
[18]
  AAV9-BVES-HA (IP-MS count): 12
[19]
  AAV9-BVES-HA (IP-MS count): 8
[20]
  AAV9-BVES-HA (IP-MS count): 20
[21]
  AAV9-BVES-HA (IP-MS count): 5
[22]
  AAV9-BVES-HA (IP-MS count): 5
[23]
  AAV9-BVES-HA (IP-MS count): 11
[24]
  AAV9-BVES-HA (IP-MS count): 11
Vinculin (Mus musculus)
  AAV9-BVES-HA (IP-MS count): 5
[25]
  AAV9-BVES-HA (IP-MS count): 11
